Measurements reported in paper PMC10786404.

Tests used:
[1] = target: protease activated receptor 2 (PAR2) (human (endogenous in Caco-2)) (UniProt P55085)
[2] = target: protease activated receptor 2 (PAR2) (human (endogenous in Caco-2)) (UniProt P55085); remark: listed apart in the source
[3] = target: protease activated receptor 2 (PAR2) (human (endogenous in Caco-2)) (UniProt P55085); remark: listed apart in the source
[4] = target: protease activated receptor 2 (PAR2) (human (endogenous in Caco-2)) (UniProt P55085); remark: listed apart in the source
[5] = target: protease activated receptor 2 (PAR2) (human (endogenous in Caco-2)) (UniProt P55085); remark: listed apart in the source

UniProt P55085, sequence (P55085 37-397): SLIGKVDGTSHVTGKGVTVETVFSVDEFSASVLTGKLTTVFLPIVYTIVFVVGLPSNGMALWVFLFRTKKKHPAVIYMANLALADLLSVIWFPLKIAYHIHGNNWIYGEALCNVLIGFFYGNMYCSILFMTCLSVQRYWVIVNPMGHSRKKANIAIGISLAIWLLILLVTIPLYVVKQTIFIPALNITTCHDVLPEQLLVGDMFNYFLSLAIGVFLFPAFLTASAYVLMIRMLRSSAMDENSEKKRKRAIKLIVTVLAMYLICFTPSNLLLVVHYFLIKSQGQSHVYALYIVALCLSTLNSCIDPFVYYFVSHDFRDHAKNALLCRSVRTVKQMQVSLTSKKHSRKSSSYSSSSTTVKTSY

How did the ZO-1 protein (Western blot) in the Caco-2 monolayer treated with rTsTryp, against the DMSO group; abrogated by AZ3451 pretreatment [1] turn out when “Recombinant Trichinella spiralis trypsin, C-terminal domain (rTsTryp) (from UniProt E5RYV9 1-667)” was run?
The ZO-1 protein (Western blot) in the Caco-2 monolayer treated with rTsTryp, against the DMSO group; abrogated by AZ3451 pretreatment was 56.5 % decrease.

What about the occludin protein (Western blot) in the Caco-2 monolayer treated with rTsTryp, against the DMSO group; abrogated by AZ3451 pretreatment [1] of the same substance?
The occludin protein (Western blot) in the Caco-2 monolayer treated with rTsTryp, against the DMSO group; abrogated by AZ3451 pretreatment was 49 % decrease.

What about the promotion of IIL larval invasion of the Caco-2 monolayer by 12, 16 and 20 μg/ml rTsTryp, against the PBS group [2] of the same substance?
The promotion of IIL larval invasion of the Caco-2 monolayer by 12, 16 and 20 μg/ml rTsTryp, against the PBS group was 40.2 % promotion.

And the level of phosphorylated ERK1/2 (Western blot) in the Caco-2 monolayer after 2 h with rTsTryp, against the PBS group [3]?
Its level of phosphorylated ERK1/2 (Western blot) in the Caco-2 monolayer after 2 h with rTsTryp, against the PBS group is 210 % increase.

What about the ZO-1 mRNA (qPCR) in Caco-2 cells treated with rTsTryp, against the DMSO group; restored by AZ3451 pretreatment [4] of the same substance?
The ZO-1 mRNA (qPCR) in Caco-2 cells treated with rTsTryp, against the DMSO group; restored by AZ3451 pretreatment was 55.9 % decrease.

And the occludin mRNA (qPCR) in Caco-2 cells treated with rTsTryp, against the DMSO group; restored by AZ3451 pretreatment [4]?
The occludin mRNA (qPCR) in Caco-2 cells treated with rTsTryp, against the DMSO group; restored by AZ3451 pretreatment was 52.4 % decrease.

What about the flux of 4 kDa FITC-dextran (FD4) through the Caco-2 monolayer, rTsTryp group against the PBS group (fold of the PBS group) [5] of the same substance?
Its flux of 4 kDa FITC-dextran (FD4) through the Caco-2 monolayer, rTsTryp group against the PBS group (fold of the PBS group) is 2.
